For test [1], the target named is T1, CD27 expressed on the cell surface of HT1080_CD27 cells (human, UniProt P26842 20-260).
T1 sequence (looked up): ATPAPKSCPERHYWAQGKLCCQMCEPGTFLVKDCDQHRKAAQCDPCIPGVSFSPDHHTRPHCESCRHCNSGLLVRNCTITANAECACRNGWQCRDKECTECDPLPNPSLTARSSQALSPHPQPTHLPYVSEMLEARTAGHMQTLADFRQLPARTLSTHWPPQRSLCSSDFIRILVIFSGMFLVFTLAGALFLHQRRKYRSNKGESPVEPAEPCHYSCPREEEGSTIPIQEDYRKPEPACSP
The test is described as follows: cell-based or functional assay.

In test [2] the target is T1, CD27 expressed on the cell surface of …. The test is described as follows: cell-based or functional assay. The source holds these as a separate data set.
Test [3] shares this target. The test is described as follows: HT1080_CD27 cells, imaging. Further: test concentration or dose not given here.
The target of test [4] is T2, CD27 protein (His-tagged, Sino Biological Inc. 10039-H08B1) (human, UniProt P26842 20-192).
T2 construct: bought protein coated on ELISA plates; also called TNFRSF7; not shown: His tag
T2 sequence (looked up): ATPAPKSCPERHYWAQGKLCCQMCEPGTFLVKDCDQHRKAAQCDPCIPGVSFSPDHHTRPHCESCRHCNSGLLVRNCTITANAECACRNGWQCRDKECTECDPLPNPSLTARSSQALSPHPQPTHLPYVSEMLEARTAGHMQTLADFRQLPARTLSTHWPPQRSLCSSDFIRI
Nature of the test: ELISA, coated His-tagged CD27. Further: test concentration or dose not given here.
Wherever Functional assay Cross-linked by F(ab′)2 fragment IL-8 is given: test concentration or dose not given here.
Wherever Functional assay IL-8 is given: test concentration or dose not given here.

B1: P018.S.09.A.H03 (antibody, V domains shown)
VH: QSLEESGGRLVTPDESLTLTCTVSGFSLSSNAMIWVRQAPGKGLEWIGIIDTGGSAYYASWAKGRFTISKTSTTVDLKITSPTTEDTATYFCARDRYTDSSGYNLWGQGTLVTVSS
VL: DIVMTQTPASVEAAVGGTVTIKCQASQSIGASLAWYKQKPGQPPKLLIYSASWLASGVPSRFKGSGSGTEFTLTISDLASADAATYYCQSYYYRSSSGYGYAFGGGTEVVVK
For the molecule B1, the “EC 50 (IL-8 release, cross-linked)” value in test [1] amounted to 0.387 µg/mL.

B2: P018.S.10.A.H01 (antibody, V domains shown)
VH: QEQLEESGGDLVKPGASLTLTCTASGFSFSSDYDMCWVSQAPGKGLEWIACIIGGSSDSTWYASWAKGRFTISKTSSTTVTLQVTGLTAADTATYFCARNVGFSYYDLWGPGTLVTVSS
VL: AQVLTQTPSPVSAAVGGTVTINCQASQSLYNNKNLAWYQQKPGQPPKLLIYYASTLASGVSSRFKGSGSGTQFTLTISGVQSDDAATYYCQGEFSCSSGDCFAFGGGTEVVVK
Turning to B2, the “EC 50 (IL-8 release, cross-linked)” value in test [1] stood at 0.431 µg/mL.

B3: P018.S.04.A.A05 (antibody, V domains shown)
VH: QSLEESGGRLVTPGTPLTLTCTASGFTISSYEMGWVRQAPGEGLEYIGWIASGGSTFYASWAKGRFTISRTSTTVDLTITDLRPSDTGTYFCARGYVEFKLWGPGTLVTVSS
VL: DIVMTQTPASVSESVGGTVTIKCQASQSIGSYLSWYQQKPGQPPKVLIYRASTLESGVPSRFEGSGSGTQFTLTISDLESADAATYYCQGYHSTSGYVAFGGGTELVVK
On to B3, for which the “EC 50 (IL-8 release, cross-linked)” value in test [1] turned out to be 0.408 µg/mL.

B4: P018.S.10.A.A04 (antibody, V domains shown)
VH: QSVEESGGRLVTPGTPLTLTCTVSGIDLSSNVMTWVRQAPGKGLEWIGYIYASATTYYATWAKGRFTISKTSTTVDLKMTSPTTEDTATYFCARERLASRGDYSDLWGQGTLVTVSS
VL: AYDMTQTPASVEAAVGGTVTIKCQASESIGDLLAWYQQKPGQPPKLLIYDASDLASGVPSRFKGSGSGTEFTLTISGVESADAATYYCQQGYTTTSNVDNIFGGGTEVVVK
As to B4, in test [1], the “EC 50 (IL-8 release, cross-linked)” value was found to be 0.335 µg/mL.

B5: P018.S.09.A.C06 (antibody, V domains shown)
VH: QSVEESGGRLVTPGTPLTLTCTVSGFSLSTYAMGWVRQAPGKGLEWIGIIYTGGSTYYASWAEGRFTISKTSTTVDLKITSPTPEDTATYFCTRDLGATYDYFDLWGQGTLVTVSS
VL: AYDMTQTPASVEVAVGGTVTIKCQASQSISTALAWYQQKPGQRPKLLIYDTSDLASGVPSRFSGSGSGTEFTLTISGVESADAATYYCQQGYRHTNVDNPFGGGTGVVVK
On to B5, for which the “EC 50 (IL-8 release, cross-linked)” value in test [1] was 0.221 µg/mL.

B6: P018.S.02.A.B01 (antibody, V domains shown)
VH: QSVEESGGRLVTPGTPLTLTCTVSGMDLSSYSMSWVRQAPGEGLEYIGFIGSSGGTYYASWAKGRFTISRTSTTVDLNITSPTTEDTATYFCARMLAGVYTRLDLWGQGTLVTVSS
VL: AQVLTQTPSSVSAAVGGTVTINCQASQSISSSYCSWYQQKPGQPPKLLIYKASTLASGVPSRFKGSGSGTQFTLTISDVQSDDAATYYCAGDFIASSGNAFGGGTEVVVK
notes: V regions on human Ig constant parts; also called AB27_29
Consider B6, for which, in test [2], the “Functional assay Cross-linked by F(ab′)2 fragment IL-8” value (from here on “Functional assay Cross-linked”) was determined as 1.42 abs. corr and the “Functional assay IL-8” value amounted to 0.538 abs. corr. Further, the “Cellular binding assay [RFU]” value in test [3] was 332 RFU. Further, the “ELISA [abs. corr.]” value in test [4] turned out to be 2.93 abs. corr.

B7: P018.S.10.A.E04 (antibody, V domains shown)
VH: QSLEESGGDLVKPGASLTLTCTASGFSFSSSYWICWVRQAPGKGLEWVACISAPGSGSTFDASWAKGRFTISKTSSTTVTLQMTSLTAADTATYFCARFYAGGSGDYFDLWGPGTLVTVSS
VL: QIVMTQTPSSTSEPVGGTVSIKCQASQNIGSYLAWYQQKPGQPPKVLIYTTSDLASGVPSRFKGSGSGTQFTLTISDLESDDAATYYCLGVYGYSSDDVAFGGGTEVVVK
As for B7, in test [1], the “EC 50 (IL-8 release, cross-linked)” value is 0.234 µg/mL.

B8: P018.S.10.A.C05 (antibody, V domains shown)
VH: QSVEETGGRLVTPGTPLTLTCAASGVSLSGYYAMSWVRQAPGKGLEWIGYLDATGSTYYASWVKGRFIISRPSTTVDLQITSPTIEDTATYFCARGSYDGVGYNWGLWGQGTLVTVSS
VL: DIVMTQTPASVSEPVGGTVTIKCQASESIYNGLAWYQQKPGQPPKRLIYGASTLTSGVPSRFKGSGSGTEFTLTISDLESDDAATYYCQSNYGSGSRSNYIFGGGTEVVVK
Regarding B8, the “EC 50 (IL-8 release, cross-linked)” value in test [1] came out at 0.34 µg/mL.

B9: P018.S.06.A.B01 (antibody, V domains shown)
VH: QSLEESGGGLVKPEGSLTLTCTASGFSFSSSYWICWVRQAPGKGLEWIGCIYAGTFSDTFYASWTKGRFTISKTSSTTVTLQMTSLTGADTATYFCARGHYYYTDNYTANGYGRGLTRLDLWGQGTLVTVSS
VL: AAVLTQTPSPVSAAVGGTVTISCQASQSVYNNNNLAWYQQKAGQPPKLLIYGASNLESGVPSRFKGSGSGTQFTLTISDLESDDAASYYCAGGYTTSGDNGFGGGTEVVVK
notes: V regions on human Ig constant parts; also called AB27_98
Regarding B9, in test [2], the “Functional assay Cross-linked” value worked out at 1.18 abs. corr and the “Functional assay IL-8” value worked out at 0.106 abs. corr. Moreover, the “Cellular binding assay [RFU]” value in test [3] was determined as 279 RFU. Besides, the “ELISA [abs. corr.]” value in test [4] is 2.94 abs. corr.

B10: P018.S.05.A.D06 (antibody, V domains shown)
VH: QSVEESGGRLVTPGTPLTLTCTVSGFSLSSYWMSWVRQAPGKGLEWIGFIYGGSGDKYYASWAKGRFAISKTSTTVDLKITSPTTEDTATYFCARGGDGDGTYSSLWGQGTLVTVSS
VL: AQVLTQTPSPVSAAVGGTVTISCQSSESVAGKNLAWYQQKPGQPPKVLIYGTSNLASRVPSRFRGSGSGTQFTLTISDLESDDAATYYCQGYYSGGIYGFGGGTEVVVE
notes: V regions on human Ig constant parts; also called AB27_88
Take B10: in test [2], the “Functional assay Cross-linked” value came out at 1.23 abs. corr and the “Functional assay IL-8” value was 0.338 abs. corr. The “Cellular binding assay [RFU]” value in test [3] is 323 RFU. In addition, the “ELISA [abs. corr.]” value in test [4] came out at 2.93 abs. corr.

B11: P018.S.10.A.C01 (antibody, V domains shown)
VH: QSVEESGGRLVTPGTPLTLTCTLSGFSLSNYAMSWVRQAPGKGLEWIGVIYTSGTTHYASWAKGRFTISKTSTTVDLRMTSLTTEDTATYFCARSRYYGSGWGGYYFNLWGQGTLVTVSS
VL: DVVMTQTPSPVSAAVGGTVTINCQASEDIYSLLAWYQQKPGQRPKLLIYGASNLESGVPSRFKGSGSGTEYTLTISGVQSADAATYYCHGGTYTGSADINAFGGGTEVVVE
notes: V regions on human Ig constant parts; also called AB27_170
On to B11, for which, in test [2], the “Functional assay Cross-linked” value turned out to be 1.1 abs. corr and the “Functional assay IL-8” value was -0.046 abs. corr. Besides, the “Cellular binding assay [RFU]” value in test [3] is 266 RFU. Besides, the “ELISA [abs. corr.]” value in test [4] is 2.93 abs. corr.

B12: P018.S.10.A.H02 (antibody, V domains shown)
VH: QSLEESGGRLVTPGGSLTLTCTVSGIDLSSYAMGWFRQAPGKGLEYIGIIYSSGSTWFANWVKGRFTISKTSTTVDLKMTSLTTEDTATYFCARYSAADHGDKFKLWGQGTLVTVSS
VL: AAVLTQTPSPVSAAVGGTVSISCQSSKNIFDNTRLSWFQQKPGQPPKQLIYGASTLASGVPSRFSGSGSGTQFTLTISGVQSDDAATYYCLGEYSSDSDTSFGGGTEVVVK
For the molecule B12, in test [1], the “EC 50 (IL-8 release, cross-linked)” value amounted to 0.122 µg/mL.

B13: P018.S.07.A.G02 (antibody, V domains shown)
VH: QSVEESGGRLVTPGTPLTLTCTVSGFSLSSYDMSWVRQAPGKGLEWIGWITTDGGTDYASWAKGRFTVSKASTTVDLKITSPTTEDTATYFCARGYASFNLWGQGTLVTVSS
VL: AQVLTQTPSSVSAAVGGTVTINCQSSQSVLSNSYLAWYQQKPGQPPKLLIYAASSLASGVPSRFKGSGSGTQFTLTISDLESDDAATYYCQGTDYSGGWYVAFGGGTEVVVK
Take B13: the “EC 50 (IL-8 release, cross-linked)” value in test [1] was 0.43 µg/mL.

B14: P018.S.09.A.H06 (antibody, V domains shown)
VH: QSVEESGGRLVKPDETLTLTCTVSGIDLTSYAMGWVRQAPGEGLEWIGAIGSGGGIYYASWARGRFTISKTSSTTVDLKIPSPTTEDTATYFCARVPQWAYLDLWGQGTLVTVSS
VL: AQVLTQTPASVSAAVGGTVTISCQSSESVYKNNYLSWYQQKPGQPPKLLIYDASTLASGVPSRFSGSGSGTQFTLTISGVQSEDAATYYCQGYYGGGIFTFGGGTEVVVK
Take B14: in test [1], the “EC 50 (IL-8 release, cross-linked)” value was 0.329 µg/mL.
